The results in this text go back to patent publication US20170119830A1 (REGENTS OF THE UNIVERSITY OF MINNESOTA, published 2017).

In one test the target is mesothelin (MSLN) (UniProt Q13421). The experiment in a line: 4 C cell binding assay on Panc-1 (MSLN strongly-positive) cells, E4 qPCR. For orientation: Quantitative PCR measures a nucleic acid by following its amplification.
The target in test [1] is T1, AdML-5WT, control adenovirus with the native (wild type) Ad5 fiber (adenovirus type 5, UniProt P11818 1-581).
T1 construct: The whole virion stood in the assays; also called AdML-WT; wild type fiber virus
T1 sequence: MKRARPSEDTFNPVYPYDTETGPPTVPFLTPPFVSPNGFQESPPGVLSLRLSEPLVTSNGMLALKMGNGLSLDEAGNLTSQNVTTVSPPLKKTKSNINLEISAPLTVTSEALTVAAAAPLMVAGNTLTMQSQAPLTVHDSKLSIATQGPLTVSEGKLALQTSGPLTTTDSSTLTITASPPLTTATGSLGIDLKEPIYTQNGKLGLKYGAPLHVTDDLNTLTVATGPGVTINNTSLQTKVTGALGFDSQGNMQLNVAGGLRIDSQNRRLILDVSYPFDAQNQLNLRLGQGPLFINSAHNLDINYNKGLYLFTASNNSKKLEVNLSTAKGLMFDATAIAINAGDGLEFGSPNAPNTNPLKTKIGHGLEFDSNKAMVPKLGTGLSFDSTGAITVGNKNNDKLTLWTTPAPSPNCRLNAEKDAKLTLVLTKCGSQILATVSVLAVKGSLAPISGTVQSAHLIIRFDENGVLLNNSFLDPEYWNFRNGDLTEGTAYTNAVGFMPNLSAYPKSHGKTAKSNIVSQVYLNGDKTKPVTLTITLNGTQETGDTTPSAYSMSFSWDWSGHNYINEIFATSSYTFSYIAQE
The test can be described thus: cell binding assay, 10 vp/cell, 2 h, 4 C, E4 qPCR (FIG. 26).

For test [2], the target named is T2, CD133 (Prominin-1) (UniProt O43490 20-865).
T2 construct: whole, on cells; the cell lines are human
T2 sequence: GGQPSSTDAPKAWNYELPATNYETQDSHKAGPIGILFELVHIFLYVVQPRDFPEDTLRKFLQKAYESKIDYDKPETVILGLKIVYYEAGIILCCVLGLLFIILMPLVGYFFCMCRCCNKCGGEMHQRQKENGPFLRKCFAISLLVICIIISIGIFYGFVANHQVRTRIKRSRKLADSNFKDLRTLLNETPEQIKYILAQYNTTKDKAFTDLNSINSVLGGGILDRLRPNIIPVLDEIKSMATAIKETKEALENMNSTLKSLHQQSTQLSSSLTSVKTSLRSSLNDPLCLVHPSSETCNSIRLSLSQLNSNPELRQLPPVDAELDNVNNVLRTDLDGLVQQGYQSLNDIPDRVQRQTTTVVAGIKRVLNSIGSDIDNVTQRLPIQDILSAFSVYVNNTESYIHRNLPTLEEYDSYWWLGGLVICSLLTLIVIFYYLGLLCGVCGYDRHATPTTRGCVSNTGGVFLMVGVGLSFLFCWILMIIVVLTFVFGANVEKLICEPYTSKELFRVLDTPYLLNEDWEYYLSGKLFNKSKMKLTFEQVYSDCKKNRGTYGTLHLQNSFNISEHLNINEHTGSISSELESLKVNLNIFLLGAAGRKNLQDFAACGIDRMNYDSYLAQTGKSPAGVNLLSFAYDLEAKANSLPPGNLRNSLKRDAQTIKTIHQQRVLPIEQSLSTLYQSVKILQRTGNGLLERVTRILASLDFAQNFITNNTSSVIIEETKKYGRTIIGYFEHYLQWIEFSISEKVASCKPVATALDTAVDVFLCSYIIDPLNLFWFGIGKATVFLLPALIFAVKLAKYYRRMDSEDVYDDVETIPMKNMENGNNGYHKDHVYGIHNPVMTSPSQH
The experiment in a line: cell binding assay with and without anti-CD133 antibody (FIG. 17).

For test [3], the target named is T2, CD133 (Prominin-1). The test can be described thus: cell-based or functional assay.

Substitutions are numbered along the chain they refer to. Bounds are passed on as bounds.

Turning to “AdML-VTIN, adenovirus with the VTINRSA (SEQ ID NO:12) targeting motif in the AB-loop of the fiber knob (from UniProt P11818 1-410; P11818 418-581)”, in the test with mesothelin (MSLN), the fold binding against AdMG553 was 2 fold and the fold binding against AdML-5WT was determined as 5 fold.

B1: Coxsackie adenovirus receptor (CAR) (receptor)
chain: LSITTPEEMIEKAKGETAYLPCKFTLSPEDQGPLDIEWLISPADNQKVDQVIILYSGDKIYDDYYPDLKGRVHFTSNDLKSGDASINVTNLQLSDIGTYQCKVKKAPGVANKKIHLVVLVKPSGARCYVDGSEEIGSDFKIKCEPKEGSLPLQYEWQKLSDSQKMPTSWLAEMTSSVISVKNASSEYSGTYSCTVRNRVGSDQCLLRLNVVPPSNKAGLIAGAIIGTLLALALIGLIIFCCRKKRREEKYEKEVHHDIREDVPPPKSRTSTARSYIGSNHSSLGSMSPSNMEGYSKTQYNQVPSEDFERTPQSPTLPPAKVAAPNLSRMGAIPVMIPAQSKDGSIV
notes: whole, on cells; the cell lines are human; also called Ad5 receptor; natural Ad receptor
Take B1: the binding result in test [1] is “binds”.

B2: AdML-TYML, adenovirus with the TYMLSRN (SEQ ID NO:106) targeting motif in the AB-loop of the fiber knob (other)
chain: T1 sequence with C411T, R412Y, L413M, N414L, A415S, E416R, K417N
notes: also called TYML virus; Ad-TYML
Regarding B2, the “fold binding, CD133(+) against CD133(-) 293 cells” value with CD133 (Prominin-1) [2] was 4 fold. Further, the “viral copy number after infection (E4 qPCR)” value with CD133 (Prominin-1) [3] was over 5 fold.
